Laboratory results as given in patent US20220411495A1, “POSITIVE ALLOSTERIC MODULATORS OF THE CALCIUM-SENSING RECEPTOR” (VIB VZW, priority 2019, published 2022).
Each block holds one molecule with its values, some of them ahead of it.

Experiments:
[1] = clinical development; cited from earlier work
[2] = biological target: T1, human CaSR wild type (hCaSR WT) (Homo sapiens, UniProt P41180, E1011Q); assay: Advanced phospho-ERK1/2 assay, HEK293 HA-hCaSR WT cells; type: cell-based; conditions: 5 μM nanobody, EC20 Ca2+
T1 construct: mGlu5 signal peptide (N, cleaved yes); expressed in transfected cells
T1 sequence (P41180 20-1078 E1011Q): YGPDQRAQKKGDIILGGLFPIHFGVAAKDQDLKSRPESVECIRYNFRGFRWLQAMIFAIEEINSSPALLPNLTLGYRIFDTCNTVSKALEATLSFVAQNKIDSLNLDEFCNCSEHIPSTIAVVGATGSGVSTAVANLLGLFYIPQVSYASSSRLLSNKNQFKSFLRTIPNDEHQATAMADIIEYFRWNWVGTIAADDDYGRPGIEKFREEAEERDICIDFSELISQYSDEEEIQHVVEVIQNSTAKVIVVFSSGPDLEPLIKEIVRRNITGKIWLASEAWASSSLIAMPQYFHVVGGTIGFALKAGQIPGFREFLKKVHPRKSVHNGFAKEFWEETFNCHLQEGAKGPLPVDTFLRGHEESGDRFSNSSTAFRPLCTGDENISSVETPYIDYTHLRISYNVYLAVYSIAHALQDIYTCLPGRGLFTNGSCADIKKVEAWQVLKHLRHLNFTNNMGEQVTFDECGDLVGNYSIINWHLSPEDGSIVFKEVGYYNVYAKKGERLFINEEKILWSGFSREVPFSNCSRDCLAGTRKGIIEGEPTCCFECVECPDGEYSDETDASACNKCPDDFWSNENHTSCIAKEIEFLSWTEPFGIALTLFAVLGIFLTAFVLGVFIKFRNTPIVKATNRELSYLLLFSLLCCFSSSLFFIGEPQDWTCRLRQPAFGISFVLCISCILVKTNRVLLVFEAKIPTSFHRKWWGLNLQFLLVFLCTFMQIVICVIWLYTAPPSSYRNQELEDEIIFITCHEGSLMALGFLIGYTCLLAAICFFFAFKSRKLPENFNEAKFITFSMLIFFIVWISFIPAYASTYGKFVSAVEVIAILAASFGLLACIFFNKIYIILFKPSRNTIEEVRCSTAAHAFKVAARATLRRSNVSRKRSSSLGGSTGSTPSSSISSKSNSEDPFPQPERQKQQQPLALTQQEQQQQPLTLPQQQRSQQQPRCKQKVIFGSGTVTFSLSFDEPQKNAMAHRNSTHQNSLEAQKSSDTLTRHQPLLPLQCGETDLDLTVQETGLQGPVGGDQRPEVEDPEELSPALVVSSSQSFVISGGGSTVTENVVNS
Protocol: Nanobodies were successfully purified by immobilized metal ion affinity chromatography (IMAC) and size exclusion chromatography (SEC) prior to pharmacological characterization (FIG. 1). Each nanobody was initially screened for Gq/11 activity in the Cisbio IP1 accumulation assay as this is the primary signaling pathway of CaSR (Chavez-Abiega et al., 2020). Whole HEK293 HA-hCaSR WT cells were pre-incubated for 30 minutes at 37° C. with a fixed nanobody concentration (5 μM) prior to stimulation with the endogenous ligand Ca^2+. The well characterized positive allosteric modulator (PAM) chemical NPS R-568 and negative allosteric modulator (NAM) chemical NPS 2143 were added as reference compounds. […] No nanobodies with agonist or NAM activity were observed when all nanobodies screened in the absence or in the presence of EC80 Ca^2+, respectively (FIGS. 4A and 4B). […] Except for CaSR Nb5, the same nanobodies acted as PAMs when ERK1/2 phosphorylation was measured in the presence of EC20 Ca^2+ (FIG. 2B). Again, none of the nanobodies elicited an agonist or NAM response (FIGS. 5B and 5C).
Phosphorylation of ERK1/2 at T202 and Y204 was measured with the HTRF® Advanced Phospho-ERK1/2 assay (Cisbio Bioassays, Codolet, France). […] Upon excitation at 340 nm, emission at 615 and 665 nm was measured on an EnVision multimode plate reader (PerkinElmer, Waltham, Mass., USA). […]

[3] = biological target: T2, extracellular Venus flytrap domain of CaSR (Homo sapiens, UniProt P41180); assay: Surface plasmon resonance on isolated purified Venus flytrap domain; type: binding
T2 sequence (P41180 20-610 limits assumed): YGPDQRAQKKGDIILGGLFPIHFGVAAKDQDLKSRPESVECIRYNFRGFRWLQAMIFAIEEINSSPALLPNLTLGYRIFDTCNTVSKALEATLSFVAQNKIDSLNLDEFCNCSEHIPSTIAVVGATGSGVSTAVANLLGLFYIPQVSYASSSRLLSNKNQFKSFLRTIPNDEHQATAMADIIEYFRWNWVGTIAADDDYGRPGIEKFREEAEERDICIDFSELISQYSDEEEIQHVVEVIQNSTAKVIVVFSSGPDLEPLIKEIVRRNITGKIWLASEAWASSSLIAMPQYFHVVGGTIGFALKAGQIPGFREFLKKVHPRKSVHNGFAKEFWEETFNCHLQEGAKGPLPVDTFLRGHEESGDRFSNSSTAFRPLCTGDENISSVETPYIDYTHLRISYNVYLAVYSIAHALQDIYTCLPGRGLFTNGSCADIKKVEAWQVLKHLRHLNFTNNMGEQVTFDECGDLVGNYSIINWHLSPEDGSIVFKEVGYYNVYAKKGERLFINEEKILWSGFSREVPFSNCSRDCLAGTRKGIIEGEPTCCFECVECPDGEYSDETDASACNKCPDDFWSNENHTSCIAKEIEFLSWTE

Molecule: COc1cccc([C@@H](C)NCCCc2ccccc2Cl)c1 [NPS R-568, reference compound]
Oral bioavailability [1]: < 5%

PAM activity in phospho-ERK1/2 assay [2]: could not be confirmed
B1: Nb5: llama-derived CaSR-specific nanobody, weakest PAM, SEQ ID NO:8 (protein)
VHH: QVQLVESGGRLVQDGGSLRLSCAASGLTFSDYSMGWFRQVPGKEREFVAVIRRSNDSTYYADFVKGRFTISRDNAKNTVYLQMNSLQPEDTAVYSCAADRGGVGLTSAQTYAYWGQGTQVTVSS
modifications: CaSR Nb5

Binding to isolated Venus flytrap domain (SPR) [3]: binds
B2: Nb4: llama-derived CaSR-specific nanobody acting as PAM, SEQ ID NO:5 (protein)
VHH: QVQLVESGGGLVQAGGSLRLSCAASGRTFSTYRMGWFRQGLGKEREFVAAITANGVRTFYTDSVKGRFTISRDNAKNTLYLQMNSLQPDDTAVYLCAARRKGIFTVQQAQDITDWDYWGQGTQVTVSS
modifications: CaSR Nb4
Dependence of binding affinity on endogenous ligands (SPR) ([3]; Ca2+ and/or L-Trp): synergistically increases upon the presence of both ligands
